Values quoted from earlier work in paper PMC13242166.

Target: TRH1 receptor (Homo sapiens) (UniProt P34981)
Assay: radioligand binding

UniProt P34981, sequence (P34981 whole entry): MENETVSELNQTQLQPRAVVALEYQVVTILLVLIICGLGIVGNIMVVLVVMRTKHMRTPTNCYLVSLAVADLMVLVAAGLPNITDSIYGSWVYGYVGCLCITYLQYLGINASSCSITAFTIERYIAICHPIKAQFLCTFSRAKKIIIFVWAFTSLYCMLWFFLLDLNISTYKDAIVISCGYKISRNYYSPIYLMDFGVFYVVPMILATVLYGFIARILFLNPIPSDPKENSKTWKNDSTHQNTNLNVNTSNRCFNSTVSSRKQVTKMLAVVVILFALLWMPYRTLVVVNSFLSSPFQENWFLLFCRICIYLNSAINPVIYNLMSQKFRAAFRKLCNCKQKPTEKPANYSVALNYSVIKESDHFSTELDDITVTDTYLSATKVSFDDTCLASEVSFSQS

Kd: 13 nM
Substance: TRH (from UniProt P20396)
